In article PMC7812869:
“And” between values parts separate entries of the source, which are not always exact repeats. Equal values may be shown once.

Biological target: 80S-like ribosomes (yeast | yeast (endogenous in the yeast strain)) (UniProt Q07381)
Test: co-sedimentation

UniProt Q07381, sequence (Q07381 whole entry, looked up): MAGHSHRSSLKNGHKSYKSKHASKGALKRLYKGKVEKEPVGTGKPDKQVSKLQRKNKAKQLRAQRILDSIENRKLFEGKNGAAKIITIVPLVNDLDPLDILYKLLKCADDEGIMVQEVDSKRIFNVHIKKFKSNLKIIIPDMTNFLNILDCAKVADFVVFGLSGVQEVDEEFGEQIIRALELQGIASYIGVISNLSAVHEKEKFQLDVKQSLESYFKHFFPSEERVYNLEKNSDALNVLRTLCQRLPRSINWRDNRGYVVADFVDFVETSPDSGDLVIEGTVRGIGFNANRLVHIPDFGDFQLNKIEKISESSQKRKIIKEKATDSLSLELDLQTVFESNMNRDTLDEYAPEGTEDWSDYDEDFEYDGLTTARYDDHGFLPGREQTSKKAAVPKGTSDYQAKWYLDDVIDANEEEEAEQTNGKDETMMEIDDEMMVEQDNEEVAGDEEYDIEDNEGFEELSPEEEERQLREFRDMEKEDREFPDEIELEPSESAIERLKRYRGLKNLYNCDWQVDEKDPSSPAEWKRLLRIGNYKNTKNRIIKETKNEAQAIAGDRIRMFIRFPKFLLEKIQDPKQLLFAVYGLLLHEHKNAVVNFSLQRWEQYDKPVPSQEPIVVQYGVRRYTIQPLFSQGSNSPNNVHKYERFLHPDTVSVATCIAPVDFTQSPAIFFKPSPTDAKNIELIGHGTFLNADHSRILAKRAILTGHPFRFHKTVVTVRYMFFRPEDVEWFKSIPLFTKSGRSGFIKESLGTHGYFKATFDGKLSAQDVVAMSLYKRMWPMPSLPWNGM

fold change of bound Fap7 against Fap7 alone: 2 fold and 3 fold
Substance: Fap7+SUMO-Rps14 complex (from UniProt Q12055 1-197)
